Test results: publication PMC8604303, “Polymerization of C9 enhances bacterial cell envelope damage and killing by membrane attack complex pores” (PLoS Pathogens, 2021)

Target: the molecule itself
Assay: cell-based or functional assay

B1: wildtype C9 (C9wt) (natural protein)
chain: not shown
modifications: Cy5 at the C-terminus in the binding assays (GGGK-azide sortagged onto LPETGG, then DBCO-Cy5 by copper-free click chemistry)
  bacterial viability (CFU) of C5b-8 labelled E. coli MG1655 with 100 nM C9, decrease: ≥ 1000 fold
